Among the data in PMC3961392 are Kd values, retold here.

In series [1] the target is A3G NPM ins194_195NPM (UniProt Q9HC16). The series is described as follows: fluorescence anisotropy. The following applies: RT buffer: 50 mM Tris pH 7.4, 40 mM KCl, 10 mM MgCl2, 1 mM DTT; 10 nM F-labeled DNA; 21 C. For orientation: Polarisation of emitted light reports the rotation of a fluorescent probe.
The target of series [2] is A3G (Homo sapiens?) (UniProt Q9HC16). In words: fluorescence anisotropy. The following applies: RT buffer: 50 mM Tris pH 7.4, 40 mM KCl, 10 mM MgCl2, 1 mM DTT; 10 nM F-labeled DNA; 21 C.
A3G (Homo sapiens?), sequence (Q9HC16 whole entry): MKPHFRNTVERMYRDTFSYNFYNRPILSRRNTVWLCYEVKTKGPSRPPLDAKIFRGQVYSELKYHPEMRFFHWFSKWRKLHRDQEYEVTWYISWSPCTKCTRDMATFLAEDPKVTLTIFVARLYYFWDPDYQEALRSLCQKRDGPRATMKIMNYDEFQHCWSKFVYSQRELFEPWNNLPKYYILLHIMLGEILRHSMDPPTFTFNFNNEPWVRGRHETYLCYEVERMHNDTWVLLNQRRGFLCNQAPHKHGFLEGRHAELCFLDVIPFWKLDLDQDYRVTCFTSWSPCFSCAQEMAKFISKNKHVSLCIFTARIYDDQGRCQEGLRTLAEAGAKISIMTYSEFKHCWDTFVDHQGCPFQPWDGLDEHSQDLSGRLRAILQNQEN

A3G NPM ins194_195NPM, sequence (Q9HC16 whole entry): as above

What is called Kd is the constant that tells how readily two partners part at equilibrium. Lower therefore signals tighter binding. Regarding “GAATATATGTTGAGACCCAAAGTAATGAGAGATTGATTAGATGAGTGTAATGTGATATATGTGTATGAAAGATATAAGACCCAAAGAGTAAAGTTGTTAATGTGTGTAGATATGTTAA [A3G - 63 (118 nt, CCC)]”, the Kd in series [1] turned out to be 56 nM; in series [2], 130 nM.
